According to patent EP4585618A1 (Jiangsu Hengrui Pharmaceuticals Co., Ltd., dated 2025):
Residue numbers refer to the chain shown, from its start.

B1: chimeric antibody ChP2-C2 (antibody, human IgG4 S228P, kappa, F234A L235A, V domains shown)
VH: QVQLKQSGPGLVQPSQSLSITCTVSGFSLTSYGVHWVRQSPGKGLEWLGVIWSGGHTDLNAAFISRLSINKDNSKSQVFFKMNSLQGDDTAIYYCARNGYGGCLDYWGQGTTLTVSS
VL: DIVMTQSHKFMSTSVGDRVSITCKAGQDVSIAVAWYQQKPGQSPQLLIYSASYRYTGVPDRFTGSGSGTDFTFAISSVQAEDLAVYYCQQYYSIPPSFGAGTKLEIKR
notes: Murine variable regions with hIgG4(LALA) and CL constant regions; also called M P2-C2
B2: chimeric antibody ChP2-B9 (antibody, human IgG4 S228P, kappa, F234A L235A, V domains shown)
VH: EVQLQQSGPELVKPGASVKISCKASGYTFTDYFMNWVKLSHGKSLEWIGDINPNNGGTSYNQRFKDKVTLTVDKSSSTAYMELRSLTSDSSAVYFCARNGYYDSNYLSYFDVWGTGTTVTVSS
VL: DIQMTQSPASLSVSVGETVTITCRASENIYSNLAWYQQKQGKSPQLLVYGATNLADGVPSRFSGSGSGTQYSLKINSLQSEDFGSYYCQHFWDTPYTFGGGTKLEIKR
notes: Murine variable regions with hIgG4(LALA) and CL constant regions; also called M P2-B9
B3: chimeric antibody ChP2-E10 (antibody, human IgG4 S228P, kappa, F234A L235A, V domains shown)
VH: DVQLQESGPGLVKPSQSLSLTCSVTGYSITSGYYWNWIRQFPGNKLEWMGYMSYEGTNNSNPSLKNRISITRDTSKNQFFLKLNSVTTEDTARYYCARERAYYYGTLGAMDYWGQGTSVTVSS
VL: B2 VL with G50A, L78M, Y96F, G100S
notes: Murine variable regions with hIgG4(LALA) and CL constant regions; also called M P2-E10
B4: chimeric antibody ChP2-E7 (antibody, human IgG4 S228P, kappa, F234A L235A, V domains shown)
VH: QVQLQQPGTELVKPGASVKLSCKASGYTFTSYWMHWVKQSPGQGLEWIGNINPSNGGPNYNENFKTKATLTVDKSSSTAYMQLNSLTSEDSAVYYCAGGDYYGGSYLFAYWGQGTLVTVSS
VL: DTVMTQSHKFMSTSVGDRVSVTCKASQDVNIAVAWYQQKPGQSPKLLIYSSSYRYTGVPDRFTGSGSETDFTFTISSVQAEDLAVYYCQQHYTFPYTFGGGTKLEIKR
notes: Murine variable regions with hIgG4(LALA) and CL constant regions; also called M P2-E7
B5: chimeric antibody ChP2-G4 (antibody, human IgG4 S228P, kappa, F234A L235A, V domains shown)
VH: EVQLQQSGPELVKPGASVKMSCKASGYTFTDYNMHWVKQSHGKSLEWIGYINPNNGGTTYNQKFKGKATLTVNKSSSTAYMELRSLTSEDSAVYYCASSEYYGSTFLFAYWGQGTLVTVSS
VL: B1 VL with S20G, G26S, Q45K, A74T, V85A, Y91H, I94T, P96W, S97T, A100G
notes: Murine variable regions with hIgG4(LALA) and CL constant regions; also called M P2-G4
B6: chimeric antibody ChP2-E11 (antibody, human IgG4 S228P, kappa, F234A L235A, V domains shown)
VH: QVQLQQSGPELVKPGASVKISCKASAYTFTDYYINWVKQRPGQGLEWIGWIFPGSGSTYYNEKFKGKATLTVDKSSSTAYMLVSSLTSEDSAVYFCARSGTLVAPYAMDYWGQGTSVTVSS
VL: SIVMTQTPKFLLVSAGDRVTITCKASQSVSNDVAWYQQKPGQSPKLLIYYTSNRYTGVPDRFTGSGYGTDFTFTISTVQAEDLAVYFCQQDYSFPLTFGAGTKLEIKR
notes: Murine variable regions with hIgG4(LALA) and CL constant regions; also called M P2-E11
B7: chimeric antibody ChP1-B4 (antibody, human IgG4 S228P, kappa, F234A L235A, V domains shown)
VH: QVQLKQSGPGLVQPSQSLSITCTVSSFSLTNYGVHWVRQSPGKGLEWLGVIWTGGSTDYNAAFISRLSIIRDNSKSQVFFKMNSLQADDTAMYYCAITTVVTAMDYWGQGTSVTVSS
VL: B4 VL with T2I, V21I, A34V, S50A, S51A, E68G, T93S, F94S
notes: Murine variable regions with hIgG4(LALA) and CL constant regions; also called M P1-B4
B8: chimeric antibody ChP2-B3 (antibody, human IgG4 S228P, kappa, F234A L235A, V domains shown)
VH: QVQLKQSGPGLVQPSQSLSITCTVSGFSLTNYGVHWFRQSPGKGLEWLGMIWSGGNTDYNAAFTSRLIITKDNSKSQVFFKMNSMQADDTAIYYCARGDYGSSSAYWGQGTLVTVSS
VL: B1 VL with G26S, Q45K, A74T, Y91H, I94N, P95T, P96L, S97T
notes: Murine variable regions with hIgG4(LALA) and CL constant regions; also called M P2-B3
B9: chimeric antibody ChP2-C4 (antibody, human IgG4 S228P, kappa, F234A L235A, V domains shown)
VH: QVQLKESGPGLVAPSQSLSITCTVSGFSLSTYAIGWVRQPPGKGLEWLGVIWTGGGTSYNSALKSRLSISKDNSKSQVFLKMNSLQTDDTARYYCARGDYGPFAYWGQGTLVTVSS
VL: DIVMTQSHKFMSTSLGDRVSISCKASQDVSIAVAWYQQKAGQSPKLLIYSASYRHTGVPDRFTGSGSGTDFTFTISSVQAEDLAVYYCQQHYSTPFTFGSGTKLEIKR
notes: Murine variable regions with hIgG4(LALA) and CL constant regions; also called M P2-C4
B10: chimeric antibody ChP2-F4 (antibody, human IgG4 S228P, kappa, F234A L235A, V domains shown)
VH: EVQLVESGGGLVKPGGSLKLSCAASGFTFSDYGMHWVRQAPEKGLEWVAYISSGSRIIYYADTVKGRFTISRDNAKNTLFLQMTSLRSEDTAMYSCARFYNYAHYTMDYWGQGTSVTVSS
VL: B9 VL with L15V, S22T, I31T, A40P, H55Y, A84T, V85L, Q90H, F96P, S100G
notes: Murine variable regions with hIgG4(LALA) and CL constant regions; also called M P2-F4
B11: chimeric antibody ChP2-C10 (antibody, human IgG4 S228P, kappa, F234A L235A, V domains shown)
VH: QVQLQQPGAELVKPGASVKLSCKASGYTFTSYWMHWVKQRPGQGLEWIGVIHPNSDTTNYNEKFKNKATLTVDKSSSTAYMQLSSLTSEDSAVYYCATRYDYAYYAMDYWGQGTSVTVSS
VL: DIVMTQSHKFMSTSVGDRVSITCKASQDVTTAVAWYQQKPGQSPKLLIYSASYRYTGVPDRFTGSGSGTDFTFTISSVQAEDLAVYHCQQHYSTSPTFGGGTMLEIKR
notes: Murine variable regions with hIgG4(LALA) and CL constant regions; also called M P2-C10

target: T1, His-tagged ILT4 protein extracellular domain: ILT4-His (human, UniProt Q8N423 22-460); test: ELISA, coated ILT4-His 1 µg/mL; Assay 5
T1 construct: Expressed in 293 cells; also called human ILT4-His protein
T1 sequence (Q8N423 other isoform, or with tags, fused parts or gaps limits assumed): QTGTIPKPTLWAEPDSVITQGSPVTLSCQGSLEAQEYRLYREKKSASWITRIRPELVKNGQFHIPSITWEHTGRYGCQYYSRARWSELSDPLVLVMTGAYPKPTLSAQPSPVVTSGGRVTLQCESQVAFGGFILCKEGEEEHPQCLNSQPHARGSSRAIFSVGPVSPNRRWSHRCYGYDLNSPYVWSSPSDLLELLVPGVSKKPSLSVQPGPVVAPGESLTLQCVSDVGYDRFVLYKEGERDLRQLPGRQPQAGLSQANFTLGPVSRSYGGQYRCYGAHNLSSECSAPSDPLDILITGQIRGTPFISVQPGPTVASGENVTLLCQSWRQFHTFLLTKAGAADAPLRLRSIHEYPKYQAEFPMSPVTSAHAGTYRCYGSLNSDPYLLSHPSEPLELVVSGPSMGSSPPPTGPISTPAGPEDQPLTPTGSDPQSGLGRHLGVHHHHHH

Row | EC50 | Top | Binder
1 | 0.0493 µg/mL | 1.16 absorbance at 450 nm | B1
2 | 0.0487 µg/mL | 1.53 absorbance at 450 nm | B2
3 | 0.0658 µg/mL | 1.65 absorbance at 450 nm | B3

target: T1, His-tagged ILT4 protein extracellular …; test: ELISA, coated ILT4-His 1 µg/mL; Assay 2

Row | EC50 | Top | Binder
4 | 0.0729 µg/mL | 2 absorbance at 450 nm | B4
5 | 0.0621 µg/mL | 1.83 absorbance at 450 nm | B5
6 | 0.0428 µg/mL | 1.98 absorbance at 450 nm | B6

target: T1, His-tagged ILT4 protein extracellular …; test: screening of chimeric antibodies (ILT4 protein binding, cell binding, ILT4/HLA-G blocking)

Row | binding result | Binder
7 | binds | B7
8 | binds | B8
9 | binds | B9
10 | binds | B10
11 | binds | B11
